Measurements reported in article PMC11480844.

B1: H2-Kb / B6 (parent)
chain 1: GDSVTQTEGLVTVTEGLPVKLNCTYQTTYLTIAFFWYVQYLNEAPQVLLKSSTDNKRTEHQGFHATLHKSSSSFHLQKSSAQLSDSALYYCALSLGNAGAKLTFGGGTRLTVRP
chain 2: EAAVTQSPRNKVTVTGGNVTLSCRQTNSHNYMYWYRQDTGHGLRLIHYSYGAGNLQIGDVPDGYKATRTTQEDFFLLLELASPSQTSLYFCASSDGMISSSYEQYFGPGTRLTVL
chain 3: not shown
chain 4: IQKTPQIQVYSRHPPENGKPNILNCYVTQFHPPHIEIQMLKNGKKIPKVEMSDMSFSKDWSFYILAHTEFTPTETDTYACRVKHDSMAEPKTVYWDRDM
chain 5: SIINFEKL

Variants of: B1
Assay: % of reporter cells activated (NFAT-GFP), raw; also: test concentration or dose not given here
Design: unit not given here
Details: with B6

Variant	ratio to parent
chain 5 N4G	0.752
chain 5 N4P	1.13
chain 5 N4L	2.7
chain 5 N4D	1.29
chain 5 N4C	1.25
chain 5 N4K	0.926
chain 5 N4R	1
chain 5 N4Q	0.993
chain 5 N4W	0.832
chain 5 N4S	1.03
chain 5 N4V	0.893
chain 5 N4T	1.1
chain 5 N4E	0.913
chain 5 N4A	1.17
chain 5 N4F	1.87
chain 5 N4H	0.973
chain 5 N4M	2.76
chain 5 N4Y	0.913
chain 5 N4I	1.05
chain 5 S1K	0.993
chain 5 S1Y	1
chain 5 S1P	0.953
chain 5 S1W	1.01
chain 5 S1G	1.01
chain 5 S1Q	0.926

Variant	ratio to parent
chain 5 S1N	0.872
chain 5 S1F	1.18
chain 5 S1E	1.12
chain 5 S1D	1.13
chain 5 S1V	0.826
chain 5 S1R	0.611
chain 5 S1M	0.973
chain 5 S1A	1.1
chain 5 S1T	1.07
chain 5 S1L	1.13
chain 5 S1C	1.05
chain 5 S1H	1.12
chain 5 S1I	0.919
chain 5 E6Y	0.685
chain 5 E6Q	0.872
chain 5 E6M	0.946
chain 5 E6I	0.55
chain 5 E6D	0.792
chain 5 E6G	0.664
chain 5 E6K	0.872
chain 5 E6N	1.07
chain 5 E6F	0.792
chain 5 E6A	1.21
chain 5 E6S	0.852
chain 5 E6W	0.758

Variant	ratio to parent
chain 5 E6C	0.879
chain 5 E6P	1
chain 5 E6V	0.51
chain 5 E6T	0.859
chain 5 E6L	0.866
chain 5 E6H	0.919
chain 5 E6R	0.711
chain 5 K7N	0.664
chain 5 K7Q	1.09
chain 5 K7P	0.758
chain 5 K7V	0.872
chain 5 K7R	0.477
chain 5 K7F	0.812
chain 5 K7Y	0.738
chain 5 K7S	0.644
chain 5 K7W	0.638
chain 5 K7C	1
chain 5 K7T	0.94
chain 5 K7L	0.785
chain 5 K7I	0.899
chain 5 K7E	1.11
chain 5 K7G	0.913
chain 5 K7H	0.926
chain 5 K7M	0.765
chain 5 K7A	0.832

Variant	ratio to parent
chain 5 K7D	0.819
chain 5 I3N	0.913
chain 5 I3H	1.01
chain 5 I3R	0.678
chain 5 I3L	1.11
chain 5 I3W	1.19
chain 5 I3D	1.01
chain 5 I3G	1.01
chain 5 I3Y	1.23
chain 5 I3F	1.43
chain 5 I3S	1.15
chain 5 I3Q	1.06
chain 5 I3T	1.16
chain 5 I3P	1.11
chain 5 I3E	1.03
chain 5 I3C	1.07
chain 5 I3M	1.13
chain 5 I3A	1.17
chain 5 I3V	0.886
chain 5 I3K	0.98
chain 5 L8T	0.55
chain 5 L8C	0.725
chain 5 L8Y	0.805
chain 5 L8K	0.819
chain 5 L8G	1.09

Variant	ratio to parent
chain 5 L8A	0.53
chain 5 L8R	0.812
chain 5 L8Q	0.738
chain 5 L8I	0.758
chain 5 L8P	0.671
chain 5 L8H	0.859
chain 5 L8S	0.53
chain 5 L8W	0.604
chain 5 L8M	0.718
chain 5 L8V	0.403
chain 5 L8D	0.456
chain 5 L8F	0.523
chain 5 L8N	0.765
chain 5 L8E	0.329
chain 5 I2M	0.98
chain 5 I2Y	1.07
chain 5 I2N	1.2
chain 5 I2L	1.08
chain 5 I2T	1.23
chain 5 I2P	1.16
chain 5 I2H	1.15
chain 5 I2D	1.07
chain 5 I2W	0.926
